From US20080153132

Biological target: prothrombin, P00734

B1: genetic recombinant ecarin (protein)
chain: IILGSGNVNDYEVVYPQKVTALPKGAVQQPEQKYEDAMQYEFEVKGEPVVLHLEKNKELFSEDYSETHYSSDDREITTNPSVEDHCYYHGRIQNDAESTASISACNGLKGHFKLRGETYFIEPLKIPDSEAHAVYKYENIENEDEAPKMCGVTQDNWESDEPIKKTLGLIVPPHERKFEKKFIELVVVVDHSMVTKYNNDSTAIRTWIYEMLNTVNEIYLPFNIRVALVGLEFWCNGDLINVTSTADDTLHSFGEWRASDLLNRKRHDHAQLLTNVTLDHSTLGITFVYGMCKSDRSVELILDYSNITFNMAYIIAHEMGHSLGMLHDTKFCTCGAKPCIMFGKESIPPPKEFSSCSYDQYNKYLLKYNPKCILDPPLRKDIASPAVCGNEIWEEGEECDCGSPADCRNPCCDAATCKLKPGAECGNGECCDKCKIRKAGTECRPARDDCDVAEHCTGQSAECPRNEFQRNGQPCLNNSGYCYNGDCPIMLNQCIALFSPSATVAQDSCFQRNLQGSYYGYCTKEIGYYGKRFPCAPQDVKCGRLYCLDNSFKKNMRCKNDYSYADENKGIVEPGTKCEDGKVCINRKCVDVNTAY
- N-terminal amino acid sequence of the thrombin B chain after activation: the recombinant ecarin obtained according to the present invention specifically cleaves the peptide bond at the Arg-Ile site in prothrombin like snake venom derived ecarin
- activity to cleave S-2238 (thrombin enzymatic activity after 16 hours at 37 C with 2 U/mL recombinant ecarin): the activity to cleave S-2238 was detected in prothrombin when added with the recombinant ecarin
